{"source": "patent US20110280809", "proteins": {"B1": {"name": "GST-Pdia4 (protein)", "chain": "VAGAEGPDEDSSNRENAIEDEEEEEEEDDDEEEDDLEVKEENGVLVLNDANFDNFVADKDTVLLEFYAPWCGHCKQFAPEYEKIANILKDKDPPIPVAKIDATSASVLASRFDVSGYPTIKILKKGQAVDYEGSRTQEEIVAKVREVSQPDWTPPPEVTLVLTKENFDEVVNDADIILVEFYAPWCGHCKKLAPEYEKAAKELSKRSPPIPLAKVDATAETDLAKRFDVSGYPTLKIFRKGRPYDYNGPREKYGIVDYMIEQSGPPSKEILTLKQVQEFLKDGDDVIIIGVFKGESDPAYQQYQDAANNLREDYKFHHTFSTEIAKFLKVSQGQLVVMQPEKFQSKYEPRSHMMDVQGSTQDSAIKDFVLKYALPLVGHRKVSNDAKRYTRRPLVVVYYSVDFSFDYRAATQFWRSKVLEVAKDFPEYTFAIADEEDYAGEVKDLGLSESGEDVNAAILDESGKKFAMEPEEFDSDTLREFVTAFKKGKLKPVIKSQPVPKNNKGPVKVVVGKTFDSIVMDPKKDVLIEFYAPWCGHCKQLEPVYNSLAKKYKGQKGLVIAKMDATANDVPSDRYKVEGFPTIYFAPSGDKKNPVKFEGGDRDLEHLSKFIEEHATKLSRTKEEL"}}, "molecular_target": "Bovine pancreatic trypsin inhibitor, reduced form, P00974", "data": [{"protein": "B1", "values": [{"measurement": "disulfide isomerase activity, fraction remaining (%) of the reduced BPTI", "value": "GST-Pdia4 showed disulfide isomerase activity as compared to GST protein in redox buffer as evidenced by a decrease in disulfide formation of bovine pancreatic trypsin inhibitor"}]}]}
